Here are results for four molecules from patent publication US20230192903A1 (published 2023).

The target in assay [1] is T1, Human CLDN18.2 (human).
T1 construct: the cell line is named under assay; also called hCLDN18.2; human CLDN18.2 antigen
Put plainly: flow cytometry, NUGC4 cells (endogenous CLDN18.2). Background: Flow cytometry measures light scatter and fluorescence of single cells or particles in a stream.

The target in assay [2] is T1, Human CLDN18.2. As to the kind of experiment: cell-based or functional assay.
Assay [3] has as its target T1, Human CLDN18.2. Put plainly: flow cytometry, NUGC4-hCLDN18.2 cells.
Description: NUGC4 and NUGC4-hCLDN18.2 cells were cultured, digested with pancreatin and centrifuged to collect cells. The cells were collected and resuspended in buffer (PBS+1% FBS) at 1×10⁴ cells/well in a 96-well plate at 100 μL per well. Then the mixture was centrifuged at 350×g for 5 min, and the supernatant was removed.
The target in assay [4] is T2, Human CLDN18.1 (human, UniProt P56856 1-261).
T2 construct: also called hCLDN18.1
As to the kind of experiment: flow cytometry, 293T-hCLDN18.1 cells.

Assay [5] deals with T3, human CD3 antigen (human, UniProt P07766 23-126).
T3 construct: also called Human CD3ϵ
Put plainly: SPR (Biacore T200), human CD3 antigen on CM5 chip. (In general: In SPR one partner is held on a chip, and binding of the other changes the refractive index at the surface.)
Description: After the detection was completed, data fitting was carried out on the result pattern by adopting Biacore T200 Evaluation Software in a 1:1 binding fitting mode to obtain an equilibrium dissociation constant (KD).

B1: bispecific antibody CS7 (bispecific antibody, human IgG1, kappa)
light: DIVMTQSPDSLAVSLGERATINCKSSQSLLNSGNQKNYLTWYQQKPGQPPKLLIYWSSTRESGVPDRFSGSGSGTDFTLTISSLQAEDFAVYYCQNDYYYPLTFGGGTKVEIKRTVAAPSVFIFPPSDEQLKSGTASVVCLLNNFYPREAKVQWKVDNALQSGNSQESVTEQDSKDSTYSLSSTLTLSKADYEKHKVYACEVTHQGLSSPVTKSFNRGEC
heavy 1: EVQLVESGGGLVKPGGSLRLSCAASGFSFSNSAMSWVRQAPGKGLEWVSTISSGDSYTYYADSVKGRFTISRDNAKNSLYLQMNSLRAEDTAVYYCARQGYGNALDYWGQGTLVTVSSASTKGPSVFPLAPSSKSTSGGTAALGCLVKDYFPEPVTVSWNSGALTSGVHTFPAVLQSSGLYSLSSVVTVPSSSLGTQTYICNVNHKPSNTKVDKKVEPKSCDKTHTCPPCPAPPVAGPSVFLFPPKPKDTLMISRTPEVTCVVVDVSHEAPEVQFNWYVDGVEVHNAKTKPREEQFNSTFRVVSVLTVVHQDWLNGKEYKCKVSNKGLPAPIEKTISKTKGQPREPQVYTLPPCRDELTKNQVSLWCLVKGFYPSDIAVEWESNGQPENNYKTTPPVLDSDGSFFLYSKLTVDKSRWQQGNVFSCSVMHEALHNHYTQKSLSLSPGK
heavy 2: EVQLVESGGGLVKPGGSLRLSCAASGFSFSNSAMSWVRQAPGKGLEWVSTISSGDSYTYYADSVKGRFTISRDNAKNSLYLQMNSLRAEDTAVYYCARQGYGNALDYWGQGTLVTVSSASTKGPSVFPLAPSSKSTSGGTAALGCLVKDYFPEPVTVSWNSGALTSGVHTFPAVLQSSGLYSLSSVVTVPSSSLGTQTYICNVNHKPSNTKVDKKVEPKSCDKTHTAPAPAPAPAPAPAPAPQVQLVESGGGVVQPGRSLRLSCAASGFTFSTYAMNWVRQAPGKGLEWVGRIRSKYNNYATYYADSVKDRFTISRDDSKNTLYLQMNSLRGEDTAVYYCARHGNFGNSYVSWFAYWGQGTLVTVSSGGGGSGGGGSGGGGSQTVVTQEPSLTVSPGGTVTLTCRSSTGAVTTSNYANWVQQKPGQAPRGLIGGTNKRAPGVPARFSGSLLGGKAALTLSGVQPEDEAEYTCALWYSNLWVFGGGTKVEIKGGGGSDKTHTCPPCPAPPVAGPSVFLFPPKPKDTLMISRTPEVTCVVVDVSHEAPEVQFNWYVDGVEVHNAKTKPREEQFNSTFRVVSVLTVVHQDWLNGKEYKCKVSNKGLPAPIEKTISKTKGQPREPQVCTLPPSRDELTKNQVSLSCAVKGFYPSDIAVEWESNGQPENNYKTTPPVLDSDGSFFLVSKLTVDKSRWQQGNVFSCSVMHEALHNHYTQKSLSLSPGK
notes: CSBODY structure: two 1E9.2 Fab arms; second heavy chain (first heavy entry) and first heavy chain with anti-CD3 scFv (Di6-2) between CH1 and Fc2
As to B1, the results for the EC50 in assay [1] and in assay [3] were under 100 nM and under 50 nM, respectively. Also, in assay [2], the “EC50 value for killing effect on NUGC4-hCLDN18.2 cells” value (“EC50 value … on NUGC4-hCLDN18.2 cells” for short) is under 0.01 nM. The “EC50 value for killing effect on NUGC4 cells” value (from here on “EC50 value … on NUGC4 cells”) in assay [2] was under 0.01 nM. The binding result in assay [4] is “no binding”. Moreover, the Kd in assay [5] is under 15 nM.

B2: bispecific antibody Y17 (bispecific antibody, human IgG1, kappa)
light: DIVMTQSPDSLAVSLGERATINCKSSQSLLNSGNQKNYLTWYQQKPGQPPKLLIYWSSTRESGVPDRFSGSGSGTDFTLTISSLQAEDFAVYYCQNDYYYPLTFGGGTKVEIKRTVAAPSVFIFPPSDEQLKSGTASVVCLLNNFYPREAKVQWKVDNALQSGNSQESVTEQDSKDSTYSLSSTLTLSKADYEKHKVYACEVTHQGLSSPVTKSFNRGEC
heavy: EVQLVESGGGLVKPGGSLRLSCAASGFSFSNSAMSWVRQAPGKGLEWVSTISSGDSYTYYADSVKGRFTISRDNAKNSLYLQMNSLRAEDTAVYYCARQGYGNALDYWGQGTLVTVSSASTKGPSVFPLAPSSKSTSGGTAALGCLVKDYFPEPVTVSWNSGALTSGVHTFPAVLQSSGLYSLSSVVTVPSSSLGTQTYICNVNHKPSNTKVDKKVEPKSCDKTHTCPPCPAPPVAGPSVFLFPPKPKDTLMISRTPEVTCVVVDVSHEAPEVQFNWYVDGVEVHNAKTKPREEQFNSTFRVVSVLTVVHQDWLNGKEYKCKVSNKGLPAPIEKTISKTKGQPREPQVYTLPPCRDELTKNQVSLWCLVKGFYPSDIAVEWESNGQPENNYKTTPPVLDSDGSFFLYSKLTVDKSRWQQGNVFSCSVMHEALHNHYTQKSLSLSPGK
chain: QVQLVESGGGVVQPGRSLRLSCAASGFTFSTYAMNWVRQAPGKGLEWVGRIRSKYNNYATYYADSVKDRFTISRDDSKNTLYLQMNSLRGEDTAVYYCARHGNFGNSYVSWFAYWGQGTLVTVSSGGGGSGGGGSGGGGSQTVVTQEPSLTVSPGGTVTLTCRSSTGAVTTSNYANWVQQKPGQAPRGLIGGTNKRAPGVPARFSGSLLGGKAALTLSGVQPEDEAEYTCALWYSNLWVFGGGTKVEIKGRGRGSDKTHTCPPCPAPPVAGPSVFLFPPKPKDTLMISRTPEVTCVVVDVSHEAPEVQFNWYVDGVEVHNAKTKPREEQFNSTFRVVSVLTVVHQDWLNGKEYKCKVSNKGLPAPIEKTISKTKGQPREPQVCTLPPSRDELTKNQVSLSCAVKGFYPSDIAVEWESNGQPENNYKTTPPVLDSDGSFFLVSKLTVDKSRWQQGNVFSCSVMHEALHNHYTQKSLSLSPGK
notes: YBODY structure: anti-CLDN18.2 Fab arm (1E9.2) and second monomer anti-CD3 scFv (Di6-2)-Fc
For the molecule B2, the EC50 was under 100 nM in assay [1] and under 50 nM in assay [3]. Further, in assay [2], the “EC50 value … on NUGC4-hCLDN18.2 cells” value is under 0.01 nM. The “EC50 value … on NUGC4 cells” value in assay [2] is under 0.01 nM. For the same molecule, the binding result in assay [4] is “no binding”. The Kd in assay [5] was under 15 nM.

B3: bispecific antibody CS6 (bispecific antibody, human IgG1, kappa)
light: DIVMTQSPSSLTVTAGEKVTMSCKSSQSLLNSGNQKNYLTWYQQKPGQPPKLLIYWASTRESGVPDRFTGSGSGTDFTLTISSVQAEDLAVYYCQNDYSYPFTFGSGTKLEIKRTVAAPSVFIFPPSDEQLKSGTASVVCLLNNFYPREAKVQWKVDNALQSGNSQESVTEQDSKDSTYSLSSTLTLSKADYEKHKVYACEVTHQGLSSPVTKSFNRGEC
heavy 1: QVQLQQPGAELVRPGASVKLSCKASGYTFTSYWINWVKQRPGQGLEWIGNIYPSDSYTNYNQKFKDKATLTVDKSSSTAYMQLSSPTSEDSAVYYCTRSWRGNSFDYWGQGTTLTVSSASTKGPSVFPLAPSSKSTSGGTAALGCLVKDYFPEPVTVSWNSGALTSGVHTFPAVLQSSGLYSLSSVVTVPSSSLGTQTYICNVNHKPSNTKVDKKVEPKSCDKTHTCPPCPAPPVAGPSVFLFPPKPKDTLMISRTPEVTCVVVDVSHEAPEVQFNWYVDGVEVHNAKTKPREEQFNSTFRVVSVLTVVHQDWLNGKEYKCKVSNKGLPAPIEKTISKTKGQPREPQVYTLPPCRDELTKNQVSLWCLVKGFYPSDIAVEWESNGQPENNYKTTPPVLDSDGSFFLYSKLTVDKSRWQQGNVFSCSVMHEALHNHYTQKSLSLSPGK
heavy 2: QVQLQQPGAELVRPGASVKLSCKASGYTFTSYWINWVKQRPGQGLEWIGNIYPSDSYTNYNQKFKDKATLTVDKSSSTAYMQLSSPTSEDSAVYYCTRSWRGNSFDYWGQGTTLTVSSASTKGPSVFPLAPSSKSTSGGTAALGCLVKDYFPEPVTVSWNSGALTSGVHTFPAVLQSSGLYSLSSVVTVPSSSLGTQTYICNVNHKPSNTKVDKKVEPKSCDKTHTAPAPAPAPAPAPAPAPQVQLVESGGGVVQPGRSLRLSCAASGFTFSTYAMNWVRQAPGKGLEWVGRIRSKYNNYATYYADSVKDRFTISRDDSKNTLYLQMNSLRGEDTAVYYCARHGNFGNSYVSWFAYWGQGTLVTVSSGGGGSGGGGSGGGGSQTVVTQEPSLTVSPGGTVTLTCRSSTGAVTTSNYANWVQQKPGQAPRGLIGGTNKRAPGVPARFSGSLLGGKAALTLSGVQPEDEAEYTCALWYSNLWVFGGGTKVEIKGGGGSDKTHTCPPCPAPPVAGPSVFLFPPKPKDTLMISRTPEVTCVVVDVSHEAPEVQFNWYVDGVEVHNAKTKPREEQFNSTFRVVSVLTVVHQDWLNGKEYKCKVSNKGLPAPIEKTISKTKGQPREPQVCTLPPSRDELTKNQVSLSCAVKGFYPSDIAVEWESNGQPENNYKTTPPVLDSDGSFFLVSKLTVDKSRWQQGNVFSCSVMHEALHNHYTQKSLSLSPGK
notes: CSBODY structure: two 175D10 Fab arms; second heavy chain (first heavy entry) and first heavy chain with anti-CD3 scFv (Di6-2) between CH1 and Fc2
As for B3, in assay [2], the “EC50 value … on NUGC4-hCLDN18.2 cells” value was under 0.01 nM. The half-maximal effective concentration (EC50) in assay [3] was under 50 nM. Moreover, the binding result in assay [4] is reported as “no binding”. The molecule further returned a dissociation constant Kd in assay [5] of under 15 nM.

B4: bispecific antibody CS8 (bispecific antibody, human IgG1, kappa)
light: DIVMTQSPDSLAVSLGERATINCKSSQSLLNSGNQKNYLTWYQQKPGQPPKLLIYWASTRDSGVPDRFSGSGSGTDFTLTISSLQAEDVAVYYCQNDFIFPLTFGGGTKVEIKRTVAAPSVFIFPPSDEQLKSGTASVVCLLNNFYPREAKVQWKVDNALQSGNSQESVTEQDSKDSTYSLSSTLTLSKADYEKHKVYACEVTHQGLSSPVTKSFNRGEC
heavy 1: QVQLQESGPGLVKPSETLSLTCTVSGFSLTRYGVSWIRQPPGKGLEWIGVIWGEGNTNYNPSLKSRVTISKDSSKSQVSLKLSSVTAADTAVYYCARVNFGNALDYWGQGTLVTVSSASTKGPSVFPLAPSSKSTSGGTAALGCLVKDYFPEPVTVSWNSGALTSGVHTFPAVLQSSGLYSLSSVVTVPSSSLGTQTYICNVNHKPSNTKVDKKVEPKSCDKTHTCPPCPAPPVAGPSVFLFPPKPKDTLMISRTPEVTCVVVDVSHEAPEVQFNWYVDGVEVHNAKTKPREEQFNSTFRVVSVLTVVHQDWLNGKEYKCKVSNKGLPAPIEKTISKTKGQPREPQVYTLPPCRDELTKNQVSLWCLVKGFYPSDIAVEWESNGQPENNYKTTPPVLDSDGSFFLYSKLTVDKSRWQQGNVFSCSVMHEALHNHYTQKSLSLSPGK
heavy 2: QVQLQESGPGLVKPSETLSLTCTVSGFSLTRYGVSWIRQPPGKGLEWIGVIWGEGNTNYNPSLKSRVTISKDSSKSQVSLKLSSVTAADTAVYYCARVNFGNALDYWGQGTLVTVSSASTKGPSVFPLAPSSKSTSGGTAALGCLVKDYFPEPVTVSWNSGALTSGVHTFPAVLQSSGLYSLSSVVTVPSSSLGTQTYICNVNHKPSNTKVDKKVEPKSCDKTHTAPAPAPAPAPAPAPAPQVQLVESGGGVVQPGRSLRLSCAASGFTFSTYAMNWVRQAPGKGLEWVGRIRSKYNNYATYYADSVKDRFTISRDDSKNTLYLQMNSLRGEDTAVYYCARHGNFGNSYVSWFAYWGQGTLVTVSSGGGGSGGGGSGGGGSQTVVTQEPSLTVSPGGTVTLTCRSSTGAVTTSNYANWVQQKPGQAPRGLIGGTNKRAPGVPARFSGSLLGGKAALTLSGVQPEDEAEYTCALWYSNLWVFGGGTKVEIKGGGGSDKTHTCPPCPAPPVAGPSVFLFPPKPKDTLMISRTPEVTCVVVDVSHEAPEVQFNWYVDGVEVHNAKTKPREEQFNSTFRVVSVLTVVHQDWLNGKEYKCKVSNKGLPAPIEKTISKTKGQPREPQVCTLPPSRDELTKNQVSLSCAVKGFYPSDIAVEWESNGQPENNYKTTPPVLDSDGSFFLVSKLTVDKSRWQQGNVFSCSVMHEALHNHYTQKSLSLSPGK
notes: CSBODY structure: two 2C6.9 Fab arms; second heavy chain (first heavy entry) and first heavy chain with anti-CD3 scFv (Di6-2) between CH1 and Fc2
B4: the EC50 in assay [1] was under 100 nM; in assay [3], under 50 nM. The “EC50 value … on NUGC4-hCLDN18.2 cells” value in assay [2] is under 0.01 nM. Moreover, the “EC50 value … on NUGC4 cells” value in assay [2] is under 0.01 nM. For the same molecule, in assay [4], the binding result is recorded as “no binding”. This molecule gave an equilibrium dissociation constant (Kd) in assay [5] of under 15 nM.

Usually EC50 stands for the concentration giving half of the maximal effect. Low readings indicate an effect from little substance, high ones a need for much substance. One may read the Kd as the equilibrium constant for the complex coming apart. Low values mean higher affinity, high ones lower affinity.
